We go through 1 molecule from PMC5927468, “A noncanonical role for dynamin-1 in regulating early stages of clathrin-mediated endocytosis in non-neuronal cells” (PLoS Biology, 2018).

For one experiment, the target named is T1, Dyn1a^WT-eGFP (UniProt Q05193 1-864).
T1 construct: dynamin-1 cDNA, C-terminal splice variant "a" (Dyn1a), in the retroviral vector pMIEG; also called Dyn1a-eGFP; Dyn1-eGFP; source: A549 Dyn1^KO cells, retroviral transduction, in lysate (post-nuclear fraction); not shown: eGFP, C-terminal, kept
T1 sequence (looked up): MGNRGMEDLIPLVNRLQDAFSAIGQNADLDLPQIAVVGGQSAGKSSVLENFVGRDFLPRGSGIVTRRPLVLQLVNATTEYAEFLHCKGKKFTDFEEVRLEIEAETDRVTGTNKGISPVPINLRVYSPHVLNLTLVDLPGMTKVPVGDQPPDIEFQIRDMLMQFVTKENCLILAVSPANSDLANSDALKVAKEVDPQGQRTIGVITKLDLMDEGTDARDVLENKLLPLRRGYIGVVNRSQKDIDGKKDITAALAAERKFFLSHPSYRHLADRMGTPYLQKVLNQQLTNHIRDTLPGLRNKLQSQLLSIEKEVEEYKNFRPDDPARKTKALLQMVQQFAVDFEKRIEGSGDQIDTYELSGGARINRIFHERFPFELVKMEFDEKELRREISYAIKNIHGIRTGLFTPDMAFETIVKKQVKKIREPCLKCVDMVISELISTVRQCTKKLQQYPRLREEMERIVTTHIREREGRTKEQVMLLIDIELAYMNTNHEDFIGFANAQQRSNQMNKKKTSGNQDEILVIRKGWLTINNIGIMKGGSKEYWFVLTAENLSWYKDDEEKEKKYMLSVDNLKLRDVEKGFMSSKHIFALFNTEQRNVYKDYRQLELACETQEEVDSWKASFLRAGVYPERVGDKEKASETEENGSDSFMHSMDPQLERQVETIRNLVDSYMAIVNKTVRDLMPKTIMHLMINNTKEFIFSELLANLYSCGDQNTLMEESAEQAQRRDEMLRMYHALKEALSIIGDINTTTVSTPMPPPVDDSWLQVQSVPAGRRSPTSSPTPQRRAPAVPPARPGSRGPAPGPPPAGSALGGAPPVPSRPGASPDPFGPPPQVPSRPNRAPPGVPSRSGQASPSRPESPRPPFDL
The experiment in a line: co-IP; GFP-nAb agarose, 0.5 mg A549 post-nuclear fraction, 2 h at 4 °C; beads washed with buffer 3 (0.5% Triton X-100, 25 mM HEPES, 150 mM KCl, 1 mM MgCl2, 2 mM EGTA, pH 7.4); immunoblot. To be noted: partners not purified.

The target of a further experiment is T2, Dyn1a^S774/8A-eGFP (UniProt Q05193 1-864, S774/8A | S774/8A).
T2 construct: dynamin-1 cDNA, C-terminal splice variant "a" (Dyn1a), in the retroviral vector pMIEG, with S774 and S778 changed to alanine; also called Dyn1^S774/8A-eGFP; Dyn1^S774/8A; source: A549 Dyn1^KO cells, retroviral transduction, in lysate (post-nuclear fraction); not shown: eGFP, C-terminal, kept
T2 sequence (looked up): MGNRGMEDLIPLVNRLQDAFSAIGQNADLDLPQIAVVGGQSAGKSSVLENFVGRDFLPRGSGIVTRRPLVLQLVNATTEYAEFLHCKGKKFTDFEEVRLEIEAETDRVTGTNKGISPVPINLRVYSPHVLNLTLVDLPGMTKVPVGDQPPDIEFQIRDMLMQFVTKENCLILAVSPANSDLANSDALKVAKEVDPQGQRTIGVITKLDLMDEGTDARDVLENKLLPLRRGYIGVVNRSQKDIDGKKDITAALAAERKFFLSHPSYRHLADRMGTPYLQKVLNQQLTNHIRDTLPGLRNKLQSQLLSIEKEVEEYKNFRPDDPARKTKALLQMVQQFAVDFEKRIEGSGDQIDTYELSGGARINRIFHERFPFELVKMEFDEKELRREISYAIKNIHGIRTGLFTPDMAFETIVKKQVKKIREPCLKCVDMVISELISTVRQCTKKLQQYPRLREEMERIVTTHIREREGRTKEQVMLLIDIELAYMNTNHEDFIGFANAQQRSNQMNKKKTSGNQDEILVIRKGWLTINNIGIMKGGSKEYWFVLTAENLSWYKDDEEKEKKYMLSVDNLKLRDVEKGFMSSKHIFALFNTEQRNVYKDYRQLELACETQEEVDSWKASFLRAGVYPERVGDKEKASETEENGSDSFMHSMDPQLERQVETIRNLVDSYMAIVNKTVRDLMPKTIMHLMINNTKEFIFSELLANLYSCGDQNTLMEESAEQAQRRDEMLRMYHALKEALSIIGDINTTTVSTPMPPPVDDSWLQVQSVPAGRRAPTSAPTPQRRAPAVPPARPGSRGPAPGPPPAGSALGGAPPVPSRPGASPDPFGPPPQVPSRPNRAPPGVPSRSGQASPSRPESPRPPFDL
The experiment is described as above. To be noted: partners not purified.

B1: sorting nexin 9, endogenous in A549 cells (natural protein, human (endogenous in A549), UniProt Q9Y5X1 1-595, looked up)
chain: MATKARVMYDFAAEPGNNELTVNEGEIITITNPDVGGGWLEGRNIKGERGLVPTDYVEILPSDGKDQFSCGNSVADQAFLDSLSASTAQASSSAASNNHQVGSGNDPWSAWSASKSGNWESSEGWGAQPEGAGAQRNTNTPNNWDTAFGHPQAYQGPATGDDDDWDEDWDGPKSSSYFKDSESADAGGAQRGNSRASSSSMKIPLNKFPGFAKPGTEQYLLAKQLAKPKEKIPIIVGDYGPMWVYPTSTFDCVVADPRKGSKMYGLKSYIEYQLTPTNTNRSVNHRYKHFDWLYERLLVKFGSAIPIPSLPDKQVTGRFEEEFIKMRMERLQAWMTRMCRHPVISESEVFQQFLNFRDEKEWKTGKRKAERDELAGVMIFSTMEPEAPDLDLVEIEQKCEAVGKFTKAMDDGVKELLTVGQEHWKRCTGPLPKEYQKIGKALQSLATVFSSSGYQGETDLNDAITEAGKTYEEIASLVAEQPKKDLHFLMECNHEYKGFLGCFPDIIGTHKGAIEKVKESDKLVATSKITLQDKQNMVKRVSIMSYALQAEMNHFHSNRIYDYNSVIRLYLEQQVQFYETIAEKLRQALSRFPVM
notes: sorting nexin 9, endogenous; also called SNX9; source: endogenous, A549 (Dyn1^KO or Dyn2^KO, reconstituted) lysate
Regarding B1, the “ratio of SNX9 binding to Dyn1 versus Dyn2” value in the experiment with Dyn1a^WT-eGFP is 1.7. In addition, the “ratio of SNX9 binding to Dyn1^S774/8A versus Dyn1^WT” value in the experiment with Dyn1a^S774/8A-eGFP turned out to be 3.6.
